pKd: −log10 of the molar value. Where two headings read alike, the source gives them in different places.
Experiments:
[1] = target: bovine type I collagen (bovine) (UniProt P02453); experiment: SPR, equilibrium responses, one-site-binding nonlinear regression
[2] = target: bovine type I collagen (bovine) (UniProt P02453); experiment: SPR, BIAcore 3000, collagen immobilized on CM5 chip
[3] = target: bovine type I collagen (bovine) (UniProt P02453)
[4] = target: bovine type I collagen (bovine) (UniProt P02453); experiment: SPR, Scatchard analysis of equilibrium responses; SPR, Scatchard analysis
[5] = target: bovine type I collagen (bovine) (UniProt P02453); experiment: SPR, from the kinetic rates ka and kd; SPR, from ka and kd
[6] = target: bovine type I collagen (bovine) (UniProt P02453); remark: listed apart in the source

Sequence of UniProt P02453 (P02453 162-1217 limits assumed, chain 1 of 2): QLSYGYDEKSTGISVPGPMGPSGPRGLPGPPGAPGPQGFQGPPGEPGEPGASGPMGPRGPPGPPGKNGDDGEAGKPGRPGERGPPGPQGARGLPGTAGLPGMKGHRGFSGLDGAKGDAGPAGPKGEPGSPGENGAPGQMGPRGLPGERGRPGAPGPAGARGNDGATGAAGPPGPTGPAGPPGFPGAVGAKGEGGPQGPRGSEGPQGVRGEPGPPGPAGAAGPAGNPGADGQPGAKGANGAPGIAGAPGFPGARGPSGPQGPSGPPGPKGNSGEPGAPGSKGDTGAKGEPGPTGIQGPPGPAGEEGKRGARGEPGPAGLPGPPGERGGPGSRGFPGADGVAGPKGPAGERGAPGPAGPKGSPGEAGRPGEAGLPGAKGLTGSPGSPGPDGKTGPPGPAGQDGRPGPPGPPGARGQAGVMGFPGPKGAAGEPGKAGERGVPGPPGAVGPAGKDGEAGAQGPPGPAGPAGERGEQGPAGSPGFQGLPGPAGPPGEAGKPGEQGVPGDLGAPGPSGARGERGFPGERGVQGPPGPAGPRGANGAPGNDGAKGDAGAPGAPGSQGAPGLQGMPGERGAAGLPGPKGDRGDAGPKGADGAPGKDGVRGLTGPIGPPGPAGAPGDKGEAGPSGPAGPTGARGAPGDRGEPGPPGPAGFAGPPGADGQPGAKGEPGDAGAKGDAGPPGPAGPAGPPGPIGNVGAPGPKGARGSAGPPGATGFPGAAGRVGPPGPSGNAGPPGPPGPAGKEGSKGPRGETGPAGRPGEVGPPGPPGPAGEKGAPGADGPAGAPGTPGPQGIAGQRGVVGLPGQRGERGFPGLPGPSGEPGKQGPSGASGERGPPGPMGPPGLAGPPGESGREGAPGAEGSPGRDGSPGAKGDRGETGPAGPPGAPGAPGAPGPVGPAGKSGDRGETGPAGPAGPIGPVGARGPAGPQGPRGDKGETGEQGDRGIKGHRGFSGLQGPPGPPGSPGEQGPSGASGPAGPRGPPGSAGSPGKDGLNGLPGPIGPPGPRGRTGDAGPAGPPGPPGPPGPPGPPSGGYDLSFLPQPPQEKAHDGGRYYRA
Sequence of UniProt P02453 (P02465 80-1117 limits assumed, chain 2 of 2, further chain): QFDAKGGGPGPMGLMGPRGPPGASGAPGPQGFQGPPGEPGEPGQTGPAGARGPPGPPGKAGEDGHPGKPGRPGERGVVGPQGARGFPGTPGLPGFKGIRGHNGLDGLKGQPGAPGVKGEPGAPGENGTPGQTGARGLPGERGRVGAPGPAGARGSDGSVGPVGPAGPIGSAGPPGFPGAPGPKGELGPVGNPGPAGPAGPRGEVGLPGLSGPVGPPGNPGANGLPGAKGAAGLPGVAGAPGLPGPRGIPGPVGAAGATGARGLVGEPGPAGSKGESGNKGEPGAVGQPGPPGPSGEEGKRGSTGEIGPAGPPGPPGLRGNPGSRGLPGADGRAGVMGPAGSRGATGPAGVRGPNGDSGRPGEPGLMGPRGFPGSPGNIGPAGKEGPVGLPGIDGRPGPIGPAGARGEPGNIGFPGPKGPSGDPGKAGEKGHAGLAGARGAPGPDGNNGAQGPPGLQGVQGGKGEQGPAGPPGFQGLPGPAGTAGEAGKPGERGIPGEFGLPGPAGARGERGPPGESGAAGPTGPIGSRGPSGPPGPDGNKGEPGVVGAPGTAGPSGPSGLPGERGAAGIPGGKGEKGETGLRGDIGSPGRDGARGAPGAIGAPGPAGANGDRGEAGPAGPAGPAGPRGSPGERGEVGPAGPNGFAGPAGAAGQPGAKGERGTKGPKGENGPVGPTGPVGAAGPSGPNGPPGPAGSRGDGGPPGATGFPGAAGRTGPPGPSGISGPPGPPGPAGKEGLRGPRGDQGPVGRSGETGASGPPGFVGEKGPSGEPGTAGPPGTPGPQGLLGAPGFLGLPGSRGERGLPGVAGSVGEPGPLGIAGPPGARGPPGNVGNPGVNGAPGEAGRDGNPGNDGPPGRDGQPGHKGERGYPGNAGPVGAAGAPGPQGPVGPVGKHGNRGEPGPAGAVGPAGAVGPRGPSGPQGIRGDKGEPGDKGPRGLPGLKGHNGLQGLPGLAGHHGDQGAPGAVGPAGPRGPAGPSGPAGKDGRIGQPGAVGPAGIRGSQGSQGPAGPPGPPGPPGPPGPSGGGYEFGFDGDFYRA

| Substance | pKd [1] | koff [2] [s⁻¹] | kon [2] [M⁻¹ s⁻¹] | pKd [3] | pKd [4] | pKd [5] | pKd [6] |
| --- | --- | --- | --- | --- | --- | --- | --- |
| rBA0871A, recombinant His-tag fusion protein of the A region (amino acid residues 42-765) of BA0871 | 5.49 | 0.0043 | 2800 | 6.72 | 5.62 | 5.80 |  |
| rBA5258A, recombinant His-tag fusion protein of the A region (amino acid residues 32-366) of BA5258 | 6.05 |  |  | 7.52 |  |  | 6.22 |
